Test results reported in patent publication US20250339493A1, “METHODS OF USING NEUREGULIN-4 COMPOUNDS” (priority 2022, published 2025).

Key:
[1] = Single-ascending dose study in healthy participants: plasma pharmacokinetics after single SC or IV dose; design: species or system human; conditions: in vivo
Text: A multiple-center, investigator- and participant-blind, randomized, placebo-controlled, single-ascending dose study is designed to evaluate the safety and tolerability of a single subcutaneous (SC) dose or an intravenous (IV) dose of the NRG4 compound of SEQ ID NO:1 in healthy participants. Cohorts 1-5 are intended to receive a single SC dose of the NRG4 compound or placebo. Cohort 6 is used to assess a single IV injection of the NRG4 compound. This cohort is to enable an estimation of absolute bioavailability of the NRG4 compound. Doses for the cohorts are as follows: • Cohort 1:1 mg (6 participants NRG4 compound; 2 participants placebo)· • Cohort 2:3 mg (6 participants NRG4 compound; 2 participants placebo). • Cohort 3:10 mg (6 participants NRG4 compound; 2 participants placebo). • Cohort 4:30 mg (6 participants NRG4 compound; 2 participants placebo). • Cohort 5:60 mg (6 participants NRG4 compound; 2 participants placebo). • Cohort 6 (8 participants 3 mg NRG4 compound IV) 48 participants received a dose of NRG4 compound or placebo, with eight males, and 40 females. The age range of the participants was 25 to 65 years. A stable dose of antihypertensive medication, with the exception of beta blockers, and lipid lowering medication were allowed. The study intervention was administered either via a single SC injection into the lower abdominal region or as an IV bolus from a syringe to an indwelling venous catheter. Study interventions administered are summarized in Table 2: On Day 1, participants receive a single dose of their assigned treatment (either NRG4 compound or placebo) for first 5 cohorts and NRG4 compound for the final IV cohort. PK sampling and safety assessments, including AEs, medical assessments, clinical laboratory tests, vital signs, and ECGs, were performed at predefined times through discharge from the CRU on Day 4. Dose escalated cohorts were only initiated after satisfactory review of the safety results from all participants receiving NRG4 compound in the preceding cohort through Day 4. Participants returned to the CRU for outpatient visits on Days 7 and 15 for PK, safety, and immunogenicity assessments, as appropriate. Follow-up visit for PK, safety, and immunogenicity monitoring occurred on Day 29. At the visits and times specified in the protocol venous blood samples of approximately 3 mL each were collected to determine the plasma concentrations of NRG4 compound. PK parameter estimates for NRG4 compound were calculated by standard noncompartmental methods of analysis using Phoenix WinNonlin Version 8.1. […] The PK parameters were summarized and listed separately for SC and IV-dosed cohorts. The plasma concentrations of the NRG4 compound were plotted and summarized. The dose proportionality for SC doses of NRG4 compound were assessed for the log-transformed Cmax, AUC (0-∞), and AUC (0-tlast) using a power model (where log-dose acted as an explanatory variable) to estimate ratios of dose normalized geometric means and corresponding 90% CIs. The estimated ratio of dose-normalized geometric means of PK parameters between the highest and lowest doses were used to assess dose proportionality.

[2] = Single-ascending dose study in healthy participants: safety and tolerability; assay type: in vivo
Text: A multiple-center, investigator- and participant-blind, randomized, placebo-controlled, single-ascending dose study is designed to evaluate the safety and tolerability of a single subcutaneous (SC) dose or an intravenous (IV) dose of the NRG4 compound of SEQ ID NO:1 in healthy participants. Cohorts 1-5 are intended to receive a single SC dose of the NRG4 compound or placebo. Cohort 6 is used to assess a single IV injection of the NRG4 compound. This cohort is to enable an estimation of absolute bioavailability of the NRG4 compound. Doses for the cohorts are as follows: • Cohort 1:1 mg (6 participants NRG4 compound; 2 participants placebo)· • Cohort 2:3 mg (6 participants NRG4 compound; 2 participants placebo). • Cohort 3:10 mg (6 participants NRG4 compound; 2 participants placebo). • Cohort 4:30 mg (6 participants NRG4 compound; 2 participants placebo). • Cohort 5:60 mg (6 participants NRG4 compound; 2 participants placebo). • Cohort 6 (8 participants 3 mg NRG4 compound IV)
48 participants received a dose of NRG4 compound or placebo, with eight males, and 40 females. The age range of the participants was 25 to 65 years. A stable dose of antihypertensive medication, with the exception of beta blockers, and lipid lowering medication were allowed. […]

[3] = Rat continuous SC infusion toxicology study; assay type: in vivo
Experimental: (§1) Table 3 presents the estimated margins of safety of 21 mg/day infused for 24 hours and 140 mg/day infused for 96 hours doses of NRG4 compound. The anticipated therapeutic benefit for patients with HFrEF outweighs any potential risks identified in the nonclinical safety profile.

[4] = Cynomolgus continuous SC infusion toxicology study; assay type: in vivo, cynomolgus monkey
Experimental: as §1

[5] = rat non-repro NOAEL (F), 16.1 mg/kg/day, 96 h SC infusion
[6] = rat, in vivo, sc, 1.6 mg/kg/day
[7] = cynomolgus monkey, in vivo, sc, 156 mg/kg/day
[8] = monkey NOAEL (M + F), 12.6 mg/kg/day, 96 h SC infusion

## NRG4 compound: NRG4 compound comprising amino acid sequence SEQ ID NO:1: GGGGSGHEEPCGPSHKSFCLNGGLCYQIPTIPSPFCRCVENYTGARCEKVEL; selective HER4 binding (GGGGSGHEEPCGPSHKSFCLNGGLCYQIPTIPSPFCRCVENYTGARCEKVFL)
[1]
  geometric mean F (absolute bioavailability): 104%
[1]; iv
  geometric mean CL: 6.01 L/h
  geometric mean Vss: 13.6 L
  geometric mean Vz: 22.0 L
  geometric mean t1/2: 2.53 h
[1]; sc
  dose proportionality of AUC (0-0): slightly higher than proportional
  dose proportionality of Cmax: slightly less than proportional
  dose proportionality of PK: increase approximately proportionally
  geometric mean CL/F: 4.88 to 6.05 L/h
  geometric mean Vz/F: 19.2 to 24.3 L
  geometric mean t1/2: 2.45 h
  mean CL/F: 4.9 to 6.05 L/h
  mean half-life: 2.20 to 3.21 h
  median tmax: 2.0 h
  tmax range: 1.00 to 4.08 h
  t½: 2.5 to 3 h
[2]; in vivo
  overall safety and tolerability: safe and well-tolerated
[2]; single SC 1 to 60 mg or IV 3 mg, healthy participants
  deaths, serious adverse events, discontinuations due to adverse events: no deaths, serious adverse events (SAEs) or discontinuations due to adverse events were reported
[3]; [5]
  AUC0-t: 53.3 µg·h/mL
  Cave, ss: 0.54 µg/mL
[3]; rat, female, continuous SC infusion 96 h
  Non-repro NOAEL (F) dose: 16.1 mg/kg/day
[3]; [6]
  AUC0-t: 7.17 µg·h/mL
  Cave, ss: 0.072 µg/mL
[3]; rat, male, continuous SC infusion 96 h
  LOAEL (M) dose: 1.6 mg/kg/day
[4]; cynomolgus monkey, in vivo
  Cave, ss Multiple, Max Dose: 16.9
  Cave, ss Multiple, Start Dose: 109
[4]; [7]
  AUC0-t: 1840 µg·h/mL
  Cave, ss: 18.6 µg/mL
[4]; [8]
  AUC0-t: 148 µg·h/mL
  Cave, ss: 1.49 µg/mL
[4]; monkey, continuous SC infusion 96 h
  NOAEL (M + F) dose: 12.6 mg/kg/day
